What was measured:
recombinant murine C3d = biological target: T1, recombinant murine C3d (murine, UniProt P01027 996-1303, limits assumed); assay: direct ELISA
T1 construct: domain: C3d; also called mouse C3d
Protocol: To confirm that the antibodies reacted with C3d and not with a contaminant in the immunogen, the antibodies were tested against the C3d using a sandwich ELISA in which the recombinant C3d was captured with a polyclonal anti-C3d capture antibody (Table 2). To test reactivity of the clones against murine C3d we performed indirect and sandwich ELISAs using recombinant murine C3d. We also performed direct ELISAs to test binding of the antibodies to recombinant human C3d from a second construct, purified human C3d, and to recombinant cynomologous C3d.
To assess reactivity of antibodies against C3d, ELISAs were performed using purified forms of C3 activation fragments from several different sources (see Reagents section above). Direct ELISAs were performed by affixing 30-50 ng of the C3 fragment to the ELISA plate overnight at 4° C. The plates were blocked with 1% bovine serum albumin in PBS for 2 hours at room temperature. Bound antibodies were then detected with HRP-conjugated anti-mouse IgG (MP Biomedicals, Solon, Ohio). Sandwich ELISAs were performed by incubating polyclonal anti-human C3d antibody (Dako USA, Carpinteria, Calif.) to the ELISA plates in order to capture the C3d. Binding of the antibodies to the captured C3d was then detected as above.

recombinant human C3d = biological target: T2, recombinant human C3d (human, UniProt P01024 996-1303, limits assumed); assay: SPR, recombinant human C3d fixed to a CM5 chip
T2 construct: domain: C3d; also called wild-type C3d; the C3d immunogen
T2 sequence (P01024 996-1303 limits assumed): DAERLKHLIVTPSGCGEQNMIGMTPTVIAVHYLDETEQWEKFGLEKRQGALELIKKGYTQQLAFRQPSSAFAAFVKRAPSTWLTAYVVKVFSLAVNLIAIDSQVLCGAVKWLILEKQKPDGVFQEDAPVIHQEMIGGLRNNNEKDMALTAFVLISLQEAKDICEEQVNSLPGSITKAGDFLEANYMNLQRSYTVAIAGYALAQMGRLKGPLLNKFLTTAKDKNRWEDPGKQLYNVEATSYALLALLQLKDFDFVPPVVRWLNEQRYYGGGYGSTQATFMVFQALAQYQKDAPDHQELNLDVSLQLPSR
Protocol: FIGS. 12A-12C. […] Surface plasmon resonance was performed using recombinant human C3d fixed to a CM5 chip.
The affinity of clones 3d8b, 3d9, and 3d29 for C3d were tested by surface plasmon resonance (FIG. 12).

[1] = biological target: T3, C3d, source and species not stated; assay: radiolabeled antibody; method and antigen not stated
T3 construct: domain: C3d; also called 3d antigen; target C3d antigen
T3 sequence (P01024 1002-1303): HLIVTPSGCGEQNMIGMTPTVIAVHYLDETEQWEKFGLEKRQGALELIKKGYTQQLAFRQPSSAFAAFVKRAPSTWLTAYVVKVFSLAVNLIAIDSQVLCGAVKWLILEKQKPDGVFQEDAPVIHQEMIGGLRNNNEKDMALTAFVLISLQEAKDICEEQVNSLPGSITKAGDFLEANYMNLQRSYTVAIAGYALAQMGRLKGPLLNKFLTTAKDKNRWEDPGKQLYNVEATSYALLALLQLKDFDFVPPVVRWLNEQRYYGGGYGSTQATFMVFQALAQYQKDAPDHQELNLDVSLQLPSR

T1 sequence (P01027 996-1303 limits assumed): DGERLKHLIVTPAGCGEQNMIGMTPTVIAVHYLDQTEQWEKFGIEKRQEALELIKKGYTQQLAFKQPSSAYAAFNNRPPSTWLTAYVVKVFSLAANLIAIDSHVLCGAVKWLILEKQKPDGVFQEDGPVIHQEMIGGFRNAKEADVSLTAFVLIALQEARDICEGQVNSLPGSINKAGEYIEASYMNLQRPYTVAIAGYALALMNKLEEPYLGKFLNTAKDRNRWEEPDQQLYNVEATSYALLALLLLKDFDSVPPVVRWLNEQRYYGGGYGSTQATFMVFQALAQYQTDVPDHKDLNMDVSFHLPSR

B1: mouse monoclonal antibody 3d29 (antibody, mouse IgG2a, V domains shown)
VH: EVQLQQSGPVLVKPGASVKMSCKASGYTFTDYYMNWVKQSHGKSLEWIGVINPYNGGTSYNQKFKGKATLTVDKSSRTAYMELNSLTSEDSAVYYCSRGGPYWGQGTTLTVSS
VL: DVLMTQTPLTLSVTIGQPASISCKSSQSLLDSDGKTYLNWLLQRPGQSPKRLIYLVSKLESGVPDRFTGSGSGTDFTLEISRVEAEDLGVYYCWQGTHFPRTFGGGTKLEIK
notes: Mouse IgG2a/c (Group I clone); Also used FITC-labelled, biotinylated, radiolabeled and conjugated to SPIO nanoparticles; also called C3d29; 3d29a
In the case of B1, the binding result (recombinant murine C3d) is reported as “binds”, the Kd (recombinant human C3d) is reported as 1.06 nM and the Kd [1] is reported as 0.43 nM.
